Measurements as given in US6468740.
surface (amide) = not defined here

target: monoclonal antibody D32.39; assay: solution competition of free peptide against radiolabeled dynorphin B peptide for D32.39

Row | IC50 [nM] | Binder
1 | 11 | Ac-RQFKVVT-OH [Ac-RQFKVVT-OH, free peptide]
2 | 3.9 | Ac-RRQFKVVT-OH [Ac-RRQFKVVT-OH, free peptide]
3 | 3200 | Ac-QFKVVT-OH [Ac-QFKVVT-OH, free peptide]
4 | 7.3 | Ac-RQFKVVT-NH2 [Ac-RQFKVVT-NH2, free peptide]
5 | 77000 | Ac-FKVVT-OH [Ac-FKVVT-OH, free peptide]

target: monoclonal antibody D32.39; assay: not given

Row | Binder | Normalized Intensity (%)
6 | Ac-LRRQFKVV-{surface (amide)} (reading uncertain; also: C-terminus amide-linked to surface) [LRRQFKVV, surface-immobilized peptide] | 44
7 | Ac-FLRRQ-{surface (amide)} (reading uncertain) [FLRRQ, surface-immobilized peptide] | 8
8 | Ac-LRRQFK-{surface (amide)} (reading uncertain; also: C-terminus amide-linked to surface) [LRRQFK, surface-immobilized peptide] | 12
9 | Ac-LRRQFKV-{surface (amide)} (reading uncertain; also: C-terminus amide-linked to surface) [LRRQFKV, surface-immobilized peptide] | 16
10 | Ac-KVVT-{surface (amide)} (reading uncertain; also: C-terminus amide-linked to surface) [KVVT, surface-immobilized peptide] | 11
11 | Ac-FKVV-{surface (amide)} (reading uncertain) [FKVV, surface-immobilized peptide] | 10
12 | Ac-FLRR-{surface (amide)} (reading uncertain) [FLRR, surface-immobilized peptide] | 6
13 | Ac-FLRRQFK-{surface (amide)} (reading uncertain; also: C-terminus amide-linked to surface) [FLRRQFK, surface-immobilized peptide] | 10
14 | Ac-LRRQF-{surface (amide)} (reading uncertain; also: C-terminus amide-linked to surface) [LRRQF, surface-immobilized peptide] | 10
15 | Ac-FLRRQFKV-{surface (amide)} (reading uncertain; also: C-terminus amide-linked to surface) [FLRRQFKV, surface-immobilized peptide] | 14
16 | Ac-FLRRQF-{surface (amide)} (reading uncertain; also: C-terminus amide-linked to surface) [FLRRQF, surface-immobilized peptide] | 8
17 | Ac-LRRQ-{surface (amide)} (reading uncertain; also: C-terminus amide-linked to surface) [LRRQ, surface-immobilized peptide] | 10
18 | Ac-FKVVT-{surface (amide)} (reading uncertain) [FKVVT, surface-immobilized peptide] | 13

The remaining lines, values ahead:

Row | Normalized Intensity (%) | Binder
19 | 11 | Ac-QFKV-{surface (amide)} (reading uncertain; also: C-terminus amide-linked to surface) [QFKV, surface-immobilized peptide]
20 | 11 | Ac-RRQF-{surface (amide)} (reading uncertain; also: C-terminus amide-linked to surface) [RRQF, surface-immobilized peptide]
21 | 54 | Ac-RQFKVV-{surface (amide)} (reading uncertain; also: C-terminus amide-linked to surface) [RQFKVV, surface-immobilized peptide]
22 | 16 | Ac-RRQFKV-{surface (amide)} (reading uncertain; also: C-terminus amide-linked to surface) [RRQFKV, surface-immobilized peptide]
23 | 17 | Ac-QFKVV-{surface (amide)} (reading uncertain; also: C-terminus amide-linked to surface) [QFKVV, surface-immobilized peptide]
24 | 37 | Ac-FLRRQFKVV-{surface (amide)} (reading uncertain; also: C-terminus amide-linked to surface)
25 | 16 | Ac-RQFKV-{surface (amide)} (reading uncertain; also: C-terminus amide-linked to surface) [RQFKV, surface-immobilized peptide]
26 | 13 | Ac-RQFK-{surface (amide)} (reading uncertain; also: C-terminus amide-linked to surface) [RQFK, surface-immobilized peptide]
27 | 28 | Ac-QFKVVT-{surface (amide)} (reading uncertain; also: C-terminus amide-linked to surface) [QFKVVT, surface-immobilized peptide]
28 | 99 | Ac-RRQFKVVT-{surface (amide)} (reading uncertain; also: C-terminus amide-linked to surface) [RRQFKVVT, surface-immobilized peptide]
29 | 87 | Ac-LRRQFKVVT-{surface (amide)} (reading uncertain; also: C-terminus amide-linked to surface)
30 | 12 | Ac-RRQFK-{surface (amide)} (reading uncertain; also: C-terminus amide-linked to surface) [RRQFK, surface-immobilized peptide]
31 | 99 | Ac-RQFKVVT-{surface (amide)} (reading uncertain; also: C-terminus amide-linked to surface) [RQFKVVT, surface-immobilized peptide]
32 | 58 | Ac-RRQFKVV-{surface (amide)} (reading uncertain; also: C-terminus amide-linked to surface) [RRQFKVV, surface-immobilized peptide]
33 | 98 | Ac-FLRRQFKVVT-{surface (amide)} (reading uncertain; also: C-terminus amide-linked to surface)

target: monoclonal antibody D32.39; assay: not given; remark: another data set of the same source

Row | relative signal [%] | Binder
34 | 100 | Ac-FLRRQFKVVT-{surface (amide)} (reading uncertain; also: C-terminus amide-linked to surface)
